# Results from publication PMC13036084, “Cryo-EM structure of Chlamydomonas reinhardtii Photosystem I complexed with cytochrome c6” (Nature Communications, 2026).
# T1: PSAF subunit of Chlamydomonas reinhardtii Photosystem I (Chlamydomonas reinhardtii, UniProt P12356 63-227)
# T1 construct: PSAF, Photosystem I subunit, Chlamydomonas reinhardtii; the transit peptide segment is included in the numbering of the PDB data; numbers count on: the mature protein; Stood in the experiment as a subunit of the PSI complex m2
# T1 sequence (looked up): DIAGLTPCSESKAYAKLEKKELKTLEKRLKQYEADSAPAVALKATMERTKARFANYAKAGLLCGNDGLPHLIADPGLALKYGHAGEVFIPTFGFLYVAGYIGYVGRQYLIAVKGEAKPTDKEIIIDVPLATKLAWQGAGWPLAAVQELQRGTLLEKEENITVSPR
# Biological target: T1, PSAF subunit of Chlamydomonas …
# Assay: cross-linking; non-activated Cyt c6 (4 μM) and PSI (40 μg Chl/mL) in 30 mM HEPES/KOH pH 7.5, 1 mM ascorbate, 0.1 mM DAD, 3 mM MgCl2, 0.03% α-DDM with 5 mM EDC and 10 mM sulfo-NHS, 45 min, room temperature, dark; quenched with 50 mM Tris pH 8.0; SDS-PAGE and Western blot with anti-Cyt c6
# Conditions: both partners purified
row,Binder,binding result
1,"Chlamydomonas reinhardtii cytochrome c6 E69Q/E70Q (natural protein, heme group (heme protein), cytochrome c6, Chlamydomonas reinhardtii; also called Cyt c6 (E69Q/E70Q); E69Q/E70Q double mutant; source: E. coli BL21, co-transformed with pEC86 (Ccm genes), purified (DEAE anion exchange, size exclusion)) ADLALGAQVFNGNCAACHMGGRNSVMPEKTLDKAALEQYLDGGFKVESIIYQVENGKGAMPAWADRLSQQEIQAVAEYVFKQATDAAWKY",binds
2,"Chlamydomonas reinhardtii cytochrome c6 E71Q (natural protein, heme group (heme protein), cytochrome c6, Chlamydomonas reinhardtii; also called Cyt c6 (E71Q); source: E. coli BL21, co-transformed with pEC86 (Ccm genes), purified (DEAE anion exchange, size exclusion)) ADLALGAQVFNGNCAACHMGGRNSVMPEKTLDKAALEQYLDGGFKVESIIYQVENGKGAMPAWADRLSEEQIQAVAEYVFKQATDAAWKY",binds
